Measurements taken from patent US20250215104A1 (WALDEN BIOSCIENCES, published 2025).
Positions count from the first letter of the chain named.

B1: suPAR_DB01_E12 (scFv, V domains shown)
VH: QVQLVQSGAEVKKPGASVKVSCKASGGTFSSYAISWVRQAPGQGLEWLGVINPGGGGTNYAQKFQGRVTMTRDTSTSTVYMELSSLRSEDTAVYYCARGYDVDWFVTWGQGTLVTVSS
VL: DIQMTQSPSSLSASVGDRVTITCQASQDISNYINWYQQKPGKAPKLLIYDASNLASGVPSRFSGSGSGTDFTLTISSLQPEDFATYYCQQYHSYPPTFGGGTKVEIK
notes: screened as scFv
B2: suPAR_DB01_B03 (scFv, V domains shown)
VH: QVQLVQSGAEVKKPGASVKVSCKASGFNIKDYYIHWVRQAPGQGLEWMGWIDPENGNTIYAQKFQGRVTMTRDTSTSTVYMELSSLRSEDTAVYYCARGYDVDWFVYWGQGTLVTVSS
VL: DIQMTQSPSSLSASVGDRVTITCRASSSVSYMYWYQQKPGKAPKLLIYRTSNLASGVPSRFSGSGSGTDFTLTISSLQPEDFATYYCQQYHSYPPTFGGGTKVEIK
notes: screened as scFv
B3: suPAR_DB01_E02 (scFv, V domains shown)
VH: B2 VH with F27Y, N28T, I29F, K30T, D31S, I34M, N55G, N57S, A61D
VL: B2 VL with R24S, S26R
notes: screened as scFv
B4: suPAR_DB01_C12 (scFv, V domains shown)
VH: B2 VH with F27D, N28T, I29F, K30T, D31S, I34M, P53H, A61D
VL: B2 VL with R24S, S26R
notes: screened as scFv
B5: suPAR_DB01_E11 (scFv, V domains shown)
VH: B2 VH with F27Y, N28T, I29F, K30T, D31N, I34M, P53H, N57S
VL: B2 VL with R24S, S26R
notes: screened as scFv
B6: suPAR_DB01_B04 (scFv, V domains shown)
VH: B2 VH with F27Y, N28T, I29F, K30T, D31S, I34M, P53H, A61D
VL: B2 VL with R24S
notes: screened as scFv
B7: suPAR_DB01_C07 (scFv, V domains shown)
VH: B2 VH with F27Y, N28T, I29F, K30T, D31S, I34M, P53H, N57S, I59S, A61D
VL: B2 VL with S26R, S27Q
notes: screened as scFv
B8: suPAR_DB01_C09 (scFv, V domains shown)
VH: B2 VH
VL: B2 VL with R24S, S26R
notes: screened as scFv
B9: suPAR_DB01_E04 (scFv, V domains shown)
VH: B2 VH with F27Y, N28T, I29F, K30T, D31G, I34M, P53H, A61D
VL: B2 VL with R24S, S26R, S27Q
notes: screened as scFv
B10: suPAR_DB01_E07 (scFv, V domains shown)
VH: B2 VH with F27Y, N28T, I29F, K30T, D31S, I34M, P53H, A61D
VL: B2 VL
notes: screened as scFv
B11: suPAR_DB01_D05 (scFv, V domains shown)
VH: B2 VH with F27Y, N28T, I29F, K30T, D31G, Y32S, I34V, P53H, A61D
VL: B2 VL with R24S, S26R, S27Q
notes: screened as scFv
B12: suPAR_DB01_E03 (scFv, V domains shown)
VH: B2 VH with F27Y, N28T, I29F, K30T, I34M, P53H, I59S
VL: B2 VL with R24S, S26R
notes: screened as scFv
B13: suPAR_DB01_C08 (scFv, V domains shown)
VH: B2 VH with F27Y, N28T, I29F, K30T, D31G, I34M, P53H
VL: B2 VL with R24S, S26R
notes: screened as scFv
B14: suPAR_DB01_E10 (scFv, V domains shown)
VH: B2 VH with F27Y, N28T, I29F, K30T, D31G, I34M, P53H, N57S, I59S, A61D
VL: B2 VL with S26R, S27Q
notes: screened as scFv
B15: suPAR_DB01_B06 (scFv, V domains shown)
VH: B2 VH with F27Y, N28T, I29F, K30T, I34M, P53H, A61D
VL: B2 VL with S26R
notes: screened as scFv
B16: suPAR_DB01_B08 (scFv, V domains shown)
VH: B2 VH with F27Y, N28T, I29F, K30T, D31G, I34M, N57S, A61D
VL: B2 VL with R24S, S26R
notes: screened as scFv
B17: suPAR_DB01_E01 (scFv, V domains shown)
VH: B2 VH with F27Y, N28S, I29F, K30T, D31S, I34M, N55G, N57S, A61D
VL: B2 VL with R24S, S26R
notes: screened as scFv
B18: suPAR_DB01_D10 (scFv, V domains shown)
VH: B2 VH with F27Y, N28T, I29F, K30T, D31G, I34M, P53H, N57S, I59S, A61D
VL: B2 VL with R24S, S26R, S27Q
notes: screened as scFv
B19: suPAR_DB01_D03 (scFv, V domains shown)
VH: B2 VH with F27G, N28T, I29F, K30T, D31N, I34M, P53H, A61D
VL: B2 VL with R24S, S26R
notes: screened as scFv
B20: suPAR_DB01_C10 (scFv, V domains shown)
VH: B2 VH with F27Y, N28T, I29F, K30T, D31N, I34M
VL: B2 VL with S26R, V29I
notes: screened as scFv
B21: suPAR_DB01_E06 (scFv, V domains shown)
VH: B2 VH with F27Y, N28T, I29F, K30I, D31N, I34M, A61D
VL: B2 VL with R24S, S26R
notes: screened as scFv
B22: suPAR_DB01_B05 (scFv, V domains shown)
VH: B2 VH with F27Y, N28T, I29F, K30T, D31N, I34M, A61D
VL: B2 VL
notes: screened as scFv
B23: suPAR_DB01_E08 (scFv, V domains shown)
VH: B2 VH with F27Y, N28T, I29F, K30T, D31G, P53H, N57S, A61D
VL: B2 VL with R24S, S26R
notes: screened as scFv
B24: suPAR_DB01_D08 (scFv, V domains shown)
VH: B2 VH with F27Y, N28T, I29F, K30T, D31S, I34M, P53H, N57S
VL: B2 VL
notes: screened as scFv
B25: suPAR_DB01_C11 (scFv, V domains shown)
VH: B2 VH with F27G, N28T, I29F, K30T, D31S, I34M, N57S, A61D
VL: B2 VL with R24S, S26R
notes: screened as scFv
B26: suPAR_DB01_D12 (scFv, V domains shown)
VH: B2 VH with F27Y, N28T, I29F, K30T, D31S, I34M, N57S, A61D
VL: B2 VL with R24S, S26R
notes: screened as scFv
B27: suPAR_DB01_E09 (scFv, V domains shown)
VH: B2 VH with F27Y, N28T, I29F, K30T, D31S, I34M, P53H, A61D
VL: B2 VL with R24S, S26R, V29I, A54Q
notes: screened as scFv
B28: suPAR_DB01_D04 (scFv, V domains shown)
VH: B2 VH with F27Y, N28T, I29F, K30T, D31S, I34M, P53H, N57S
VL: B2 VL with R24S, S26R
notes: screened as scFv
B29: suPAR_DB01_D02 (scFv, V domains shown)
VH: B2 VH with F27Y, N28T, I29F, K30T, D31S, I34M, E54N, N55T, N57D, I59N
VL: B2 VL with S26R
notes: screened as scFv
B30: suPAR_DB01_C02 (scFv, V domains shown)
VH: B2 VH with F27Y, N28T, I29F, K30N, D31T, I34M, A61D
VL: B2 VL with R24S, N52S, A54Q
notes: screened as scFv
B31: suPAR_DB01_D01 (scFv, V domains shown)
VH: B2 VH with F27Y, N28T, I29F, K30T, D31G, I34M, P53H, N57S
VL: B2 VL with R24S, S26R
notes: screened as scFv
B32: suPAR_DB01_F01 (scFv, V domains shown)
VH: B2 VH with F27Y, N28T, I29F, K30T, D31S, I34V, P53H, N57S
VL: B2 VL with R24S, S26R
notes: screened as scFv
B33: suPAR_DB01_D09 (scFv, V domains shown)
VH: B2 VH with F27Y, N28T, I29F, K30T, D31N, I34M, P53H, E54S
VL: B2 VL with R24S, S26R
notes: screened as scFv
B34: suPAR_DB01_C04 (scFv, V domains shown)
VH: B2 VH with F27Y, N28T, I29F, K30T, D31G, I34M, N55G, N57S, A61D
VL: B2 VL with R24S, S26R
notes: screened as scFv
B35: suPAR_DB01_B11 (scFv, V domains shown)
VH: B2 VH with F27Y, N28T, I29F, K30T, I34M, P53H, N57S, I59S, A61D
VL: B2 VL with R24S, S26R
notes: screened as scFv
B36: suPAR_DB01_B10 (scFv, V domains shown)
VH: B2 VH with F27Y, N28T, I29F, K30S, D31S, I34M, N57S, A61D
VL: B2 VL with R24S, S26R, S27Q, Y31S
notes: screened as scFv
B37: suPAR_DB01_B12 (scFv, V domains shown)
VH: B2 VH with F27Y, N28T, I29F, K30T, D31S, I34M, A61D
VL: B2 VL with R24S, S26R
notes: screened as scFv

molecular target: T1, human soluble urokinase plasminogen activator receptor (suPAR) (human, UniProt Q03405 23-303, limits assumed); assay: off-rate (kdis) screen of scFv clones, biosensor (Octet)
T1 construct: Target antigen of the off-rate screen; also called hsuPAR; human suPAR
T1 sequence (Q03405 23-303 limits assumed): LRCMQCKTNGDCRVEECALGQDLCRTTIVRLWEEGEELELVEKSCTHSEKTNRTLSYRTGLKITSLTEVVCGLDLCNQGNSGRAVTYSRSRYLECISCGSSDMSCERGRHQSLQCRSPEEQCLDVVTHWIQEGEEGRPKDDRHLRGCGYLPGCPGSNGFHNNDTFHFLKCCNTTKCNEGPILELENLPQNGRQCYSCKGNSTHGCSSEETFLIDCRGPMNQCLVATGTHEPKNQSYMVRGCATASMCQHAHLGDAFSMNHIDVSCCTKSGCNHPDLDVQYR

Binder | koff
B1 | 0.0117 s⁻¹
B2 | 0.00329 s⁻¹
B3 | 0.00469 s⁻¹
B4 | 0.00493 s⁻¹
B5 | 0.000638 s⁻¹
B6 | 0.00206 s⁻¹
B7 | 0.00164 s⁻¹
B8 | 0.00476 s⁻¹
B9 | 0.0014 s⁻¹
B10 | 0.00228 s⁻¹
B11 | 0.00224 s⁻¹
B12 | 0.00402 s⁻¹
B13 | 0.0013 s⁻¹
B14 | 0.00162 s⁻¹
B15 | 0.00348 s⁻¹
B16 | 0.00371 s⁻¹
B17 | 0.00474 s⁻¹
B18 | 0.00147 s⁻¹
B19 | 0.00362 s⁻¹

Binder | koff
B20 | 0.00363 s⁻¹
B21 | 0.00224 s⁻¹
B22 | 0.00407 s⁻¹
B23 | 0.000564 s⁻¹
B24 | 0.000666 s⁻¹
B25 | 0.00226 s⁻¹
B26 | 0.00382 s⁻¹
B27 | 0.00446 s⁻¹
B28 | 0.000872 s⁻¹
B29 | 0.00425 s⁻¹
B30 | 0.00353 s⁻¹
B31 | 0.000531 s⁻¹
B32 | 0.000618 s⁻¹
B33 | 0.00109 s⁻¹
B34 | 0.00403 s⁻¹
B35 | 0.00273 s⁻¹
B36 | 0.00105 s⁻¹
B37 | 0.00298 s⁻¹

molecular target: T2, cynomolgus soluble urokinase plasminogen activator receptor (suPAR) (cynomolgus, UniProt Q9GK78 23-303, limits assumed); assay: as above
T2 construct: Target antigen of the off-rate screen; also called cynomolgus uPAR; cynomolgus suPAR
T2 sequence (Q9GK78 23-303 limits assumed): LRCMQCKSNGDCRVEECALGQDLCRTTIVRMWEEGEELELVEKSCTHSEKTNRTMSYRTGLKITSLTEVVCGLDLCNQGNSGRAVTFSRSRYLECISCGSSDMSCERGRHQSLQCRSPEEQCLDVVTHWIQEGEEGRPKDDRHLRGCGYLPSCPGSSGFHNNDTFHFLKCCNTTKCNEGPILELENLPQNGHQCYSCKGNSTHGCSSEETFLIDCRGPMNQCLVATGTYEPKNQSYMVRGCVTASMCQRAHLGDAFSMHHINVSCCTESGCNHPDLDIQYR

Binder | koff
B1 | 0.0212 s⁻¹
B2 | 3.5e-07 s⁻¹
B3 | 0.000347 s⁻¹
B4 | 0.000105 s⁻¹
B5 | 0.000369 s⁻¹
B6 | 8.48e-05 s⁻¹
B7 | 2.66e-05 s⁻¹
B8 | 0.000203 s⁻¹
B9 | 0.00031 s⁻¹
B10 | 6.72e-05 s⁻¹
B11 | 0.000419 s⁻¹
B12 | 5.44e-05 s⁻¹
B13 | 0.00042 s⁻¹
B14 | 0.000104 s⁻¹
B15 | 5.62e-07 s⁻¹
B16 | 0.000211 s⁻¹
B17 | 0.000254 s⁻¹
B18 | 0.000148 s⁻¹
B19 | 0.000203 s⁻¹

Binder | koff
B20 | 0.000266 s⁻¹
B21 | 0.000218 s⁻¹
B22 | 0.000181 s⁻¹
B23 | 5.85e-07 s⁻¹
B24 | 7.01e-07 s⁻¹
B25 | 8.96e-05 s⁻¹
B26 | 0.000232 s⁻¹
B27 | 0.000246 s⁻¹
B28 | 2.53e-05 s⁻¹
B29 | 0.000343 s⁻¹
B30 | 0.000234 s⁻¹
B31 | 0.000369 s⁻¹
B32 | 0.000203 s⁻¹
B33 | 0.000506 s⁻¹
B34 | 0.000303 s⁻¹
B35 | 8.79e-05 s⁻¹
B36 | 0.00108 s⁻¹
B37 | 0.000238 s⁻¹
